Source: patent US20190077863A1 (AERPIO PHARMACEUTICALS, published 2019)

What was measured:
[1] = target: T1, Human VE-PTP (HPTP-β) containing first eight FN3 repeats with C-terminal His6 tag (Human ½ VE-PTP ECD) (human, UniProt P23467 23-820); test: ELISA: HPTP-β antigen coated on the plate, antibody serially diluted (10,000 to 9.765 ng/mL), goat anti-human HRP (Fc specific), OD 450 nm
T1 construct: Produced in HEK293 cells and purified by the His tag; it was not cut off; also called Human Beta ½ ECD
T1 sequence: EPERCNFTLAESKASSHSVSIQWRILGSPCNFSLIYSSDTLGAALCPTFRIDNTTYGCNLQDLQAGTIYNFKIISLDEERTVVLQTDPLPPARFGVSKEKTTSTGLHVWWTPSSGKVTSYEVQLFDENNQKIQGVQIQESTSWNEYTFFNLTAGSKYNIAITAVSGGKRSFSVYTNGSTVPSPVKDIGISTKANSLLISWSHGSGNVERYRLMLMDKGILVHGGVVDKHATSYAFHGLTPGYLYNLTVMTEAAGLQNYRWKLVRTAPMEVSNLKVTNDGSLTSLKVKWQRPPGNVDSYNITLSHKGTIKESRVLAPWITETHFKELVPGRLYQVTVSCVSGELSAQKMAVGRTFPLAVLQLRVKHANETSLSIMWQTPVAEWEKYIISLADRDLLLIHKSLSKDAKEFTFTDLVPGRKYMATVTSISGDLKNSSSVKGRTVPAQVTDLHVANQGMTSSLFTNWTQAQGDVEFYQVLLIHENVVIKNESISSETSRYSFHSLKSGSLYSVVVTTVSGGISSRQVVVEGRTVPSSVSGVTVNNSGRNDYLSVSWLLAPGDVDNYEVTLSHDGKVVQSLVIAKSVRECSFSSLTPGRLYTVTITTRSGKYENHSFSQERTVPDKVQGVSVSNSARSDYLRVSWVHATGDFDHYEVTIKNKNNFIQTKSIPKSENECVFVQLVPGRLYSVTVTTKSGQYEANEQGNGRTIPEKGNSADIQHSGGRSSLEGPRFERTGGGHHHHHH
Procedure: (§1) Each humanized variant was measured for affinity to the antigen, human VE-PTP (HPTP-β), using ELISA. […] of the VE-PTP (HPTP-β) antigen were immobilized onto 96-well Maxisorp plates in coating buffer (0.5 mM NaHCO₃ brought to pH 9.6 by the addition of 0.5 mM Na₂CO₃) overnight at 4° C. The coating buffer was then removed and 200 μL/well of block solution (3% w/v semi-skimmed milk powder, PBS) was added and agitated for 2 hrs at room temperature. The plate was washed four times with PBS-T (1% v/v Tween 20). 100 μL/well was added of purified R15E6 variants serially diluted from 10,000 ng/mL to 9.765 ng/mL in PBS-TB (0.05% v/v Tween 20, 0.5% w/v BSA). Following agitation for 2 hrs at room temperature, the plate was washed 4× with PBS-T. 100 μL/well goat anti-human HRP (Fc specific) at a ratio of 1:60,000 PBS was then added and the plates were incubated for an additional hour with agitation at room temperature. The plate was then washed 6× with PBS-T and once in PBS. Next, 100 μL/well of TMB substrate solution was added and incubated at 37° C. for 10 min. 50 μL 1 M HCl was added per well and the plate immediately read at 450 nm on a Tecan Sunrise plate reader. […] The binding of the HC4 variants was much lower than with the other heavy chains variants compared to HC0LC0 (FIG. 17).

[2] = target: T1, Human VE-PTP (HPTP-β) containing first …; test: ELISA, coated antigen, antibody 10,000 to 9.765 ng/mL
Procedure: as §1

[3] = target: T1, Human VE-PTP (HPTP-β) containing first …; test: ELISA: HPTP-β antigen coated on the plate, antibody serially diluted, goat anti-human HRP (Fc specific), OD 450 nm
Procedure: as §1

[4] = target: T1, Human VE-PTP (HPTP-β) containing first …; test: SPR (Biacore 3000), antibody captured on anti-human IgG, antigen as analyte 100 nM (single concentration)
Procedure: (§2) Samples of each variant were further assessed by Biacore analysis to determine the binding affinity. Antibody binding experiments were performed on Biacore 3000™ at 25° C. Assay buffer: 10 mM HEPES buffer (pH 7.4), 150 mM NaCl, 3 mM EDTA, 0.05% P20 (polyoxyethylenesorbitan). […] Conjugation buffer: 10 mM sodium acetate buffer (pH 5). The flow rate used for capturing the ligand was 5 μL/min. The flow rate for the kinetic analysis was 50 μL/min. Flow cell 1 and […] of the CM5 chip were coated with maximum amounts of goat anti-human IgG. Approximately 150 RU of the test antibody was captured on flow cell 2, 3, and 4 as indicated. The antigen was flowed over the chip. Binding of the antigen to the antibodies was monitored in real time. The KD was determined from the observed kₒₙ and koff values.
A scouting analysis was performed using single analyte concentrations as indicated. At these concentrations, binding can be observed even if the ligand binding is weak. Flow cell 1 response was used for reference subtraction.

[5] = target: T1, Human VE-PTP (HPTP-β) containing first …; test: SPR (Biacore 3000), antibody captured on anti-human IgG, antigen as analyte 25-0 nM
Procedure: as §2

B1: humanized R15E6 variant HC1LC1 (antibody, human IgG4 S228P, kappa, V domains shown)
VH: EVQLVESGGGLVQPGGSLKLSCAASGFTFNANAMNWVRQASGKGLEWVGRIRTKSNNYATYYAGSVKDRFTISRDDSKNTAYLQMNSLKTEDTAAYYCVRDYYGSSAWITYWGQGTLVTVSS
VL: DVVMTQSPSFLSASVGDRVTITCKASQHVGTAVAWYQQRPGKAPKLLIYWASTRHTGVPSRFSGSGSGTEFTLTISSLQPEDFATYFCQQYSSYPFTFGGGTKLEIKR
notes: Human IgG4 (S228P) / kappa, expressed in CHO cells; Signal peptides left out by range; also called VH1-VL1
binding result [1]: binds

B2: humanized R15E6 variant HC4LC4 (antibody, human IgG4 S228P, kappa, V domains shown)
VH: LVQLVESGGGLVKPGGSLRLSCAASGFTFNANAMNWIRQAPGKGLEWVSRIRTKSNNYATYYAGSVKDRFTISRDNAKNSLYLQMNSLRAEDTAVHYCVRDYYGSSAWITYWGQGTLVTVSS
VL: DIVMTQSPDSLAVSLGERATINCKASQHVGTAVAWYQQKPEQPPKLLIYWASTRHTGVPDRFSGSGSGTDFTLTISSLQAEDVAVYYCQQYSSYPFTFGGGTKVEIKR
notes: Human IgG4 (S228P) / kappa, expressed in CHO cells; Signal peptides left out by range; also called VH4-VL4
binding result [2]: binds

B3: humanized R15E6 variant HC3LC1 (antibody, human IgG4 S228P, kappa, V domains shown)
VH: EVQLVESGGGLVQPGRSLRLSCTASGFTFNANAMNWVRQAPGKGLEWVGRIRTKSNNYATYYAGSVKDRFTISRDDSKNIAYLQMNSLKTEDTAVYYCVRDYYGSSAWITYWGQGTLVTVSS
VL: DVVMTQSPSFLSASVGDRVTITCKASQHVGTAVAWYQQRPGKAPKLLIYWASTRHTGVPSRFSGSGSGTEFTLTISSLQPEDFATYFCQQYSSYPFTFGGGTKLEIKR
notes: Human IgG4 (S228P) / kappa, expressed in CHO cells; Signal peptides left out by range; also called VH3-VL1
binding result [3]: binds

B4: humanized R15E6 variant HC1LC3 (antibody, human IgG4 S228P, kappa, V domains shown)
VH: EVQLVESGGGLVQPGGSLKLSCAASGFTFNANAMNWVRQASGKGLEWVGRIRTKSNNYATYYAGSVKDRFTISRDDSKNTAYLQMNSLKTEDTAAYYCVRDYYGSSAWITYWGQGTLVTVSS
VL: DIQMTQSPFSLSASVGDRVTITCKASQHVGTAVAWYQQKPGKAPKLLIYWASTRHTGVPSRFSGSGSGTDFTLTISSLQPEDFATYFCQQYSSYPFTFGGGTKLEIKR
notes: Human IgG4 (S228P) / kappa, expressed in CHO cells; Signal peptides left out by range; also called VH1-VL3
binding result [1]: binds

B5: humanized R15E6 variant HC3LC3 (antibody, human IgG4 S228P, kappa, V domains shown)
VH: EVQLVESGGGLVQPGRSLRLSCTASGFTFNANAMNWVRQAPGKGLEWVGRIRTKSNNYATYYAGSVKDRFTISRDDSKNIAYLQMNSLKTEDTAVYYCVRDYYGSSAWITYWGQGTLVTVSS
VL: DIQMTQSPFSLSASVGDRVTITCKASQHVGTAVAWYQQKPGKAPKLLIYWASTRHTGVPSRFSGSGSGTDFTLTISSLQPEDFATYFCQQYSSYPFTFGGGTKLEIKR
notes: Human IgG4 (S228P) / kappa, expressed in CHO cells; Signal peptides left out by range; also called VH3-VL3
binding result [3]: binds

B6: humanized R15E6 variant HC4LC1 (antibody, human IgG4 S228P, kappa, V domains shown)
VH: LVQLVESGGGLVKPGGSLRLSCAASGFTFNANAMNWIRQAPGKGLEWVSRIRTKSNNYATYYAGSVKDRFTISRDNAKNSLYLQMNSLRAEDTAVHYCVRDYYGSSAWITYWGQGTLVTVSS
VL: DVVMTQSPSFLSASVGDRVTITCKASQHVGTAVAWYQQRPGKAPKLLIYWASTRHTGVPSRFSGSGSGTEFTLTISSLQPEDFATYFCQQYSSYPFTFGGGTKLEIKR
notes: Human IgG4 (S228P) / kappa, expressed in CHO cells; Signal peptides left out by range; also called VH4-VL1
binding result [2]: binds

B7: humanized R15E6 variant HC3LC2 (antibody, human IgG4 S228P, kappa, V domains shown)
VH: EVQLVESGGGLVQPGRSLRLSCTASGFTFNANAMNWVRQAPGKGLEWVGRIRTKSNNYATYYAGSVKDRFTISRDDSKNIAYLQMNSLKTEDTAVYYCVRDYYGSSAWITYWGQGTLVTVSS
VL: DIVMTQSPDSLAVSLGERATINCKASQHVGTAVAWYQQKPGQPPKLLIYWASTRHTGVPDRFSGSGSGTDFTLTISSLQAEDVAVYYCQQYSSYPFTFGQGTKLEIKR
notes: Human IgG4 (S228P) / kappa, expressed in CHO cells; Signal peptides left out by range; also called VH3-VL2
Ka [4]: 2.06e+08 M⁻¹
Kd [4]: 4.84 nM
koff [4]: 0.000993 s⁻¹
kon [4]: 205000 M⁻¹ s⁻¹
Ka [5]: 4.3e+07 M⁻¹
Kd [5]: 23.2 nM
koff [5]: 0.00123 s⁻¹
kon [5]: 53900 M⁻¹ s⁻¹

B8: humanized R15E6 variant HC4LC2 (antibody, human IgG4 S228P, kappa, V domains shown)
VH: LVQLVESGGGLVKPGGSLRLSCAASGFTFNANAMNWIRQAPGKGLEWVSRIRTKSNNYATYYAGSVKDRFTISRDNAKNSLYLQMNSLRAEDTAVHYCVRDYYGSSAWITYWGQGTLVTVSS
VL: DIVMTQSPDSLAVSLGERATINCKASQHVGTAVAWYQQKPGQPPKLLIYWASTRHTGVPDRFSGSGSGTDFTLTISSLQAEDVAVYYCQQYSSYPFTFGQGTKLEIKR
notes: Human IgG4 (S228P) / kappa, expressed in CHO cells; Signal peptides left out by range; also called VH4-VL2
binding result [2]: binds
